# According to paper PMC5845987:
# What was measured:
# [1] = target: CCAAT/enhancer binding protein β (C/EBPβ) (UniProt P17676)
# [2] = target: CCAAT/enhancer binding protein β (C/EBPβ) (UniProt P17676); remark: listed apart in the source
# Sequence of UniProt P17676 (P17676 whole entry): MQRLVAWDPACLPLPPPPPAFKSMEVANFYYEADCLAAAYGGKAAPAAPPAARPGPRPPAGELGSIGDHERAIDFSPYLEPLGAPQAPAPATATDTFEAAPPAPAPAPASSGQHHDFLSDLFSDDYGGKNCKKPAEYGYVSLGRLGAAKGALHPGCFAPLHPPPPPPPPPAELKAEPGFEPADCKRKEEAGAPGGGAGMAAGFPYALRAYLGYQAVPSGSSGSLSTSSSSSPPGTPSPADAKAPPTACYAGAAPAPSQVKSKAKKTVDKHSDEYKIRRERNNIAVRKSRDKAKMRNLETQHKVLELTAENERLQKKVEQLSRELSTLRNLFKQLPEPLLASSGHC
binder,measurement,setting,value
HPV8 E2 protein (human papillomavirus type 8 transcription factor E2) (natural protein) MENLSERFNVLQDQLMNIYEAAEQTLEAQIAHWLLLRKEAVLLYFARQKGITRIGYQPVPPLAVSEAKAKQAIGIMLQLQSLQKSEFADEPWTLVDTSIETYKNAPENHFKKGATPVEVIYDKQPDNANVYTMWKHIYYTDADDKWHKTTSGVNQTGIYYMQGSFRHYYVVFADDARRYSATGEWEVKINKDTVFAPVTSSTPPGSPPGQADTDTAAKTPTTSADSTSRQQRSPAKQPQQTETKGRRYGRRPSSRTRPQKEQRRSRSRHRTRSRSRSLSRVRAVGSTTVSRSRSSSLTKAVRPRSRSRSRGRATATSRRRAGRGSPRRRRSTSRSPSTNTFKRSQRGGGRRGRGRGSRGRRERSSSTSPTPTKRSRGESSRLRGVSPSEVGRSVQSVSAKHTGRLGRLLDEAIDPPVILVRGEANTLKCFRNRARVRYRGLFKYFSTTWSWVAGDSTERLGRSRMLILFTSAGQRKDFDETVKYPKGVDTSYGNLDSL,"murine S100A8 promoter luciferase reporter activity in RTS3b cells co-transfected with 0.005 μg C/EBPβ and 0.005, 0.04 or 0.2 μg HPV8 E2 expression vector (control set at 1)",[1],7 fold
same,endogenous S100A8 mRNA (qRT-PCR) in RTS3b cells co-transfected with HPV8 E2 and C/EBPβ: enhancement of C/EBPβ-mediated induction,[2],> 25 fold
same,endogenous S100A8 protein level (Western blot quantification) in RTS3b cells co-transfected with HPV8 E2 and C/EBPβ,[2],90 fold
same,endogenous S100A9 mRNA (qRT-PCR) in RTS3b cells co-transfected with HPV8 E2 and C/EBPβ: enhancement of C/EBPβ-mediated induction,[2],6 fold
same,endogenous S100A9 protein level (Western blot quantification) in RTS3b cells co-transfected with HPV8 E2 and C/EBPβ,[2],31 fold
